Tests used:
[1] = molecular target: Saccharomyces cerevisiae Tel1 (Saccharomyces cerevisiae) (UniProt P38110); assay: cryo-EM structure; Tel1 100 nM with 1 mM AMP-PNP and 4 mM Mg(OAc)2, diluted into 50 mM Tris-HCl, 50 mM NaCl, pH 7.4; C2 symmetry applied; homodimer
[2] = molecular target: T1, Tel1 (Saccharomyces cerevisiae, UniProt P38110); assay: cryo-EM structure; assay type: binding; details: 3.7-3.9 A resolution; 1 mM AMP-PNP, 4 mM Mg(OAc)2, pH 7.4, on ice; kinase active site, one Mg2+ modelled, 1 ligand per monomer
T1 construct: full-length 2787 residues, homodimer; expressed as GST-Tel1 (pBL602, Gal promoter) in S. cerevisiae PY265
T1 sequence (P38110 whole entry): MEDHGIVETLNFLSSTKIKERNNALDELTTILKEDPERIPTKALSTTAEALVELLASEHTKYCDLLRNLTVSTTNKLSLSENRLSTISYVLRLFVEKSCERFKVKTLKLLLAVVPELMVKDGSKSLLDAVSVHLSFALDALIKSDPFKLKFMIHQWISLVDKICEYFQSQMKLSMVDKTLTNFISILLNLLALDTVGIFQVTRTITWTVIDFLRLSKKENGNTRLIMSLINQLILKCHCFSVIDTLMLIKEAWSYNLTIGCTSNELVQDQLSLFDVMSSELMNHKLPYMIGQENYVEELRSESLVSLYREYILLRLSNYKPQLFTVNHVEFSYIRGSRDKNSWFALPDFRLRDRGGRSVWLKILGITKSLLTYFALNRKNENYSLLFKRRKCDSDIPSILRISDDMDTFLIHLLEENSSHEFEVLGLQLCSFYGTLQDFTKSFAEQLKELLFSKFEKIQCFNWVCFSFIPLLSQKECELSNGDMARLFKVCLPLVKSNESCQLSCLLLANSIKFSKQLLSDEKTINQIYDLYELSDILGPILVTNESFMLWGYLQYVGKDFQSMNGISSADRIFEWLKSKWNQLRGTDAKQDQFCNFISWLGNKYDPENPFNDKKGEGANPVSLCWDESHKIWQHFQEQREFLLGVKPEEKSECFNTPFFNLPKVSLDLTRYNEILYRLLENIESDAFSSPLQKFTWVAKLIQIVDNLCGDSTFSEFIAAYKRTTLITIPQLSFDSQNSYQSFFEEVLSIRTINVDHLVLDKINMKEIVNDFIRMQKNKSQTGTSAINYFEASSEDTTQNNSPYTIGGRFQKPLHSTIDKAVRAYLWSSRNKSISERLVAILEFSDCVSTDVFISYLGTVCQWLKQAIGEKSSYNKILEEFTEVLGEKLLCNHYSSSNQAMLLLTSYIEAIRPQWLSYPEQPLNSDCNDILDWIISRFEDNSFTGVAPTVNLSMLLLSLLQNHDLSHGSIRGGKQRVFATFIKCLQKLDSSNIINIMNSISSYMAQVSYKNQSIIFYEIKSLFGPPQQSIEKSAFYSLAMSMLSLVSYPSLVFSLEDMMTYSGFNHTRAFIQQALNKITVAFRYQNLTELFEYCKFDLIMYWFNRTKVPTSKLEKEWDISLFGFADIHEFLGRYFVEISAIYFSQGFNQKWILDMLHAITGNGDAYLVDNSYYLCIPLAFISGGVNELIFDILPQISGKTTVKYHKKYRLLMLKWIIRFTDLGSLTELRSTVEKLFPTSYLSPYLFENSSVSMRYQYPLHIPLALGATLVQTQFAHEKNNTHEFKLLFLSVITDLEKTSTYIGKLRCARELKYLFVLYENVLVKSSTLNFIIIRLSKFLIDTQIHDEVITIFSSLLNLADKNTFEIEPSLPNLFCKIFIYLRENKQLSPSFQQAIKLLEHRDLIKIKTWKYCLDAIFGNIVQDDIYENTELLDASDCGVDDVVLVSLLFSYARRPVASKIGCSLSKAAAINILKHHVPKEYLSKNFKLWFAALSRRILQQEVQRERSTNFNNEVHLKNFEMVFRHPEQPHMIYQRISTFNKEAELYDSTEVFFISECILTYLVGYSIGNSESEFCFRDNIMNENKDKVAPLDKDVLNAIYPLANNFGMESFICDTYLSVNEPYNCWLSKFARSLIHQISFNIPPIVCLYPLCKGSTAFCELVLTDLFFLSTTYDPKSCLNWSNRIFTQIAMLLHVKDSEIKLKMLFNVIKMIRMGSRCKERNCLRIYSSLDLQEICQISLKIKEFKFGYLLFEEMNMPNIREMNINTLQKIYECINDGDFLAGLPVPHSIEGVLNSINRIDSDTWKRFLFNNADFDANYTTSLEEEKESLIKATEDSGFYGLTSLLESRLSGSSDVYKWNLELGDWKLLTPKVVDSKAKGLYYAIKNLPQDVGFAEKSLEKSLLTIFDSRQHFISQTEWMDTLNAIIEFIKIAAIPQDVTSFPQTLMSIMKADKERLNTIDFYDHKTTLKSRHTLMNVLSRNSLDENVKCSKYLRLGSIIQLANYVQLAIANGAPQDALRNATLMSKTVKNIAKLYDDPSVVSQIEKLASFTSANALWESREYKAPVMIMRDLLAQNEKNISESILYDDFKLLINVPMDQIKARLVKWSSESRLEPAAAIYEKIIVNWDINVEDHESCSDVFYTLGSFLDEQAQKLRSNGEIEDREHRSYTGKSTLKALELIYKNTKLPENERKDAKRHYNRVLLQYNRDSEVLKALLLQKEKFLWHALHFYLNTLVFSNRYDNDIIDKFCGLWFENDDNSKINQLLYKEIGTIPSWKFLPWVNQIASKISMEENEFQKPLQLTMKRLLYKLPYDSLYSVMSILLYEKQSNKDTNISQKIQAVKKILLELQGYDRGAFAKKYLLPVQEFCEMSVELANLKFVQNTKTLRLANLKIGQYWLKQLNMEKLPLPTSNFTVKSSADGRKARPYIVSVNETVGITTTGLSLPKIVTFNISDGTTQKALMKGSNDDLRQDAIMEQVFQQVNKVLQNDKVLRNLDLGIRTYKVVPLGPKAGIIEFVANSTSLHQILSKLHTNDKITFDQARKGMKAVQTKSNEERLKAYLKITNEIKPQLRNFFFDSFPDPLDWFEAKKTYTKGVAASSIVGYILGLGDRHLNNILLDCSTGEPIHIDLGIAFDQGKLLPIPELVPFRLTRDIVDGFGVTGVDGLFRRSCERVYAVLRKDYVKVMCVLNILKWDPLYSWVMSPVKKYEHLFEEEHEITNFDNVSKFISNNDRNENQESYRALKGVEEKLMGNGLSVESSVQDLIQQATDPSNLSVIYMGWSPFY

Row | Molecule | stoichiometry N [1] | cryo-EM structure [2]
1 | Saccharomyces cerevisiae Tel1, P38110 1-2787 | 2 | 
2 | Nc1ncnc2c1ncn2[C@@H]1O[C@H](COP(=O)(O)OP(=O)(O)NP(=O)(O)O)[C@@H](O)[C@H]1O [AMP-PNP] |  | clear density for AMP-PNP
